# Measured values from PMC1868955, “Crystal Structure of the P Pilus Rod Subunit PapA” (PLoS Pathogens, 2007).
# B1: PapA Ntd1 (residues 2 to 8 deleted) (natural protein)
# chain: AGKVTFNGTVVDAPCSISQKSADQSIDFGQLSKSFLEAGGVSKPMDLDIELVNCDITAFKGGNGAKKGTVKLAFTGPIVNGHSDELDTNGGTGTAIVVQGAGKNVVFDGSEGDANTLKDGENVLHYTAVVKKSSAVGAAVTEGAFSAVANFNLTYQ
# notes: also called Ntd1 (Δ2–8); source: E. coli C600, co-expressed with PapDHis
# B2: PapA Ntd1 G15N T101L (residues 2 to 8 deleted, G15N, T101L) (natural protein)
# chain: AGKVTFNNTVVDAPCSISQKSADQSIDFGQLSKSFLEAGGVSKPMDLDIELVNCDITAFKGGNGAKKGTVKLAFTGPIVNGHSDELDTNGGTGLAIVVQGAGKNVVFDGSEGDANTLKDGENVLHYTAVVKKSSAVGAAVTEGAFSAVANFNLTYQ
# notes: Two copies stand in the PapD/(PapA)2 complex: one donor-strand complemented by PapD (dscPapA), one donor-strand exchanged with the Nte of the first (dsePapA); also called dscPapA; dsePapA; source: E. coli C600, co-expressed with PapDHis
# B3: PapA G15N (natural protein)
# chain: APTIPQGQGKVTFNNTVVDAPCSISQKSADQSIDFGQLSKSFLEAGGVSKPMDLDIELVNCDITAFKGGNGAKKGTVKLAFTGPIVNGHSDELDTNGGTGTAIVVQGAGKNVVFDGSEGDANTLKDGENVLHYTAVVKKSSAVGAAVTEGAFSAVANFNLTYQ
# notes: source: E. coli C600, co-expressed with PapDHis
# B4: PapA I4G G15N (natural protein)
# chain: APTGPQGQGKVTFNNTVVDAPCSISQKSADQSIDFGQLSKSFLEAGGVSKPMDLDIELVNCDITAFKGGNGAKKGTVKLAFTGPIVNGHSDELDTNGGTGTAIVVQGAGKNVVFDGSEGDANTLKDGENVLHYTAVVKKSSAVGAAVTEGAFSAVANFNLTYQ
# notes: as for B3
# B5: PapA I4G (natural protein)
# chain: APTGPQGQGKVTFNGTVVDAPCSISQKSADQSIDFGQLSKSFLEAGGVSKPMDLDIELVNCDITAFKGGNGAKKGTVKLAFTGPIVNGHSDELDTNGGTGTAIVVQGAGKNVVFDGSEGDANTLKDGENVLHYTAVVKKSSAVGAAVTEGAFSAVANFNLTYQ
# notes: as for B3
# Columns and labels:
# [1] = target: the molecule itself; test: SEC; gel filtration of co-expressed PapDHis/PapA complexes immediately after purification; Superdex75 120 ml, 20 mM TrisHCl pH 7.5, 20 mM NaCl
# [2] = target: the molecule itself; test: negative-stain electron microscopy; PapD/PapA samples frozen and thawed five times at 150 μg/ml in 10–20 mM TrisHCl pH 7.6, 20–50 mM NaCl; used the same day or kept at 4 °C up to 40 d; 1% uranyl acetate
protein,measurement,setting,value
B1,binding result,[1],binds
B2,binding result,[1],binds
B3,binding result,[1],binds
B4,binding result,[1],binds
B5,binding result,[2],binds
